Data set [1] deals with HeLa Kyoto. Briefly: melting temperature (median over replicates), in situ; higher = more thermally stable.
Data set [2] concerns HeLa Kyoto. Briefly: solubility in G1/S (NP-40 vs SDS abundance) (log2 ratio); higher = more soluble. The conditions noted are these: cell cycle stage: G1/S.
Data set [3] deals with HeLa Kyoto. Briefly: thermal stability score vs G1/S (z-score of summed log2 fold changes over temperatures); higher = more thermally stable than in G1/S.
Data set [4] deals with HeLa Kyoto. Put plainly: solubility change mitosis vs G1/S (difference of NP-40 vs SDS log2 ratios) (log2 ratio difference); higher = more soluble in mitosis.
Setting [5] is: cell cycle stage: early G1 (4.5 h after nocodazole release).

The values that follow come from the supplement of paper PMC5998384.
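For melting temperature (median over replicates), in situ in this document: HeLa Kyoto cells synchronized by double thymidine or nocodazole block, proteins quantified by TMT10plex mass spectrometry, three independent biological replicates.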
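For solubility change mitosis vs G1/S (difference of NP-40 vs SDS log2 ratios) in this document: synchronized HeLa Kyoto cells (double thymidine block for G1/S, nocodazole release for mitosis), protein amounts in NP-40 versus SDS lysates quantified by mass spectrometry, three biological replicates.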
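For solubility in G1/S (NP-40 vs SDS abundance) in this document: HeLa Kyoto cells arrested at G1/S by double thymidine block, proteins quantified by TMT10plex mass spectrometry in mild NP-40 versus SDS extracts, three biological replicates.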
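For thermal stability score vs G1/S (z-score of summed log2 fold changes over temperatures) in this document: synchronized HeLa Kyoto cells, proteins quantified by TMT10plex mass spectrometry, three biological replicates, mitosis taken 0.5 h after nocodazole release, G1/S directly after double thymidine block.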

On to “MAANKSKGQSSLALHKVIMVGSGGVGKSALTLQFMYDEFVEDYEPTKADSYRKKVVLDGEEVQIDILDTAGQEDYAAIRDNYFRSGEGFLLVFSITEHESFTATAEFREQILRVKAEEDKIPLLVVGNKSDLEERRQVPVEEARSKAEEWGVQYVETSAKTRANVDKVFFDLMREIRTKKMSENKDKNGKKSSKNKKSFKERCCLL [RALB]”, for which the melting temperature worked out at 57 °C with HeLa Kyoto [1] (cell cycle stage: G1/S) and 57.7 °C in the data set on HeLa Kyoto [1] (cell cycle stage: mitosis). In the data set with HeLa Kyoto [2], the “solubility in G1/S (log2)” value was 0.046. Moreover, the thermal stability score in the data set on HeLa Kyoto [3] (setting [5]) is -0.446; with HeLa Kyoto [3] (cell cycle stage: mitosis), -2.23. The “solubility change mitosis (log2)” value in the data set on HeLa Kyoto [4] turned out to be 0.0599.
For the sequence “MAANMYRVGDYVYFENSSSNPYLIRRIEELNKTANGNVEAKVVCFYRRRDISSTLIALADKHATLSVCYKAGPGADNGEEGEIEEEMENPEMVDLPEKLKHQLRHRELFLSRQLESLPATHIRGKCSVTLLNETESLKSYLEREDFFFYSLVYDPQQKTLLADKGEIRVGNRYQADITDLLKEGEEDGRDQSRLETQVWEAHNPLTDKQIDQFLVVARSVGTFARALDCSSSVRQPSLHMSAAAASRDITLFHAMDTLHKNIYDISKAISALVPQGGPVLCRDEMEEWSASEANLFEEALEKYGKDFTDIQQDFLPWKSLTSIIEYYYMWKTTDRYVQQKRLKAAEAESKLKQVYIPNYNKPNPNQISVNNVKAGVVNGTGAPGQSPGAGRACESCYTTQSYQWYSWGPPNMQCRLCASCWTYWKKYGGLKMPTRLDGERPGPNRSNMSPHGLPARSSGSPKFAMKTRQAFYLHTTKLTRIARRLCREILRPWHAARHPYLPINSAAIKAECTARLPEASQSPLVLKQAVRKPLEAVLRYLETHPRPPKPDPVKSVSSVLSSLTPAKVAPVINNGSPTILGKRSYEQHNGVDGNMKKRLLMPSRGLANHGQARHMGPSRNLLLNGKSYPTKVRLIRGGSLPPVKRRRMNWIDAPDDVFYMATEETRKIRKLLSSSETKRAARRPYKPIALRQSQALPPRPPPPAPVNDEPIVIED [MTA1]”, the melting temperature in the data set on HeLa Kyoto [1] (cell cycle stage: G1/S) amounted to 49.1 °C; in the data set with HeLa Kyoto [1] (cell cycle stage: mitosis), 50.3 °C. Moreover, in the data set on HeLa Kyoto [2], the “solubility in G1/S (log2)” value was -0.0863. Further, the thermal stability score in the data set with HeLa Kyoto [3] (setting [5]) came out at 1.08; in the data set on HeLa Kyoto [3] (cell cycle stage: mitosis), 2.79. The “solubility change mitosis (log2)” value with HeLa Kyoto [4] was -0.00553.
Turning to “MAANMYRVGDYVYFENSSSNPYLIRRIEELNKTASGNVEAKVVCFYRRRDISNTLIMLADKHAKEIEEESETTVEADLTDKQKHQLKHRELFLSRQYESLPATHIRGKCSVALLNETESVLSYLDKEDTFFYSLVYDPSLKTLLADKGEIRVGPRYQADIPEMLLEGESDEREQSKLEVKVWDPNSPLTDRQIDQFLVVARAVGTFARALDCSSSVRQPSLHMSAAAASRDITLFHAMDTLYRHSYDLSSAISVLVPLGGPVLCRDEMEEWSASEASLFEEALEKYGKDFNDIRQDFLPWKSLTSIIEYYYMWKTTDRYVQQKRLKAAEAESKLKQVYIPTYSKPNPNQISTSNGKPGAVNGAVGTTFQPQNPLLGRACESCYATQSHQWYSWGPPNMQCRLCAICWLYWKKYGGLKMPTQSEEEKLSPSPTTEDPRVRSHVSRQAMQGMPVRNTGSPKSAVKTRQAFFLHTTYFTKFARQVCKNTLRLRQAARRPFVAINYAAIRAEYADRHAELSGSPLKSKSTRKPLACIIGYLEIHPAKKPNVIRSTPSLQTPTTKRMLTTPNHTSLSILGKRNYSHHNGLDELTCCVSD [MTA3]”, the melting temperature in the data set with HeLa Kyoto [1] (cell cycle stage: G1/S) turned out to be 49.3 °C; in the data set on HeLa Kyoto [1] (cell cycle stage: mitosis), 49.7 °C. Moreover, in the data set with HeLa Kyoto [2], the “solubility in G1/S (log2)” value is -0.0389. Also, the thermal stability score was found to be 0.944 in the data set on HeLa Kyoto [3] (setting [5]) and 4.09 in the data set with HeLa Kyoto [3] (cell cycle stage: mitosis). Besides, in the data set on HeLa Kyoto [4], the “solubility change mitosis (log2)” value is -0.00121.
With “MAANMYRVGDYVYFENSSSNPYLVRRIEELNKTANGNVEAKVVCLFRRRDISSSLNSLADSNAREFEEESKQPGVSEQQRHQLKHRELFLSRQFESLPATHIRGKCSVTLLNETDILSQYLEKEDCFFYSLVFDPVQKTLLADQGEIRVGCKYQAEIPDRLVEGESDNRNQQKMEMKVWDPDNPLTDRQIDQFLVVARAVGTFARALDCSSSIRQPSLHMSAAAASRDITLFHAMDTLQRNGYDLAKAMSTLVPQGGPVLCRDEMEEWSASEAMLFEEALEKYGKDFNDIRQDFLPWKSLASIVQFYYMWKTTDRYIQQKRLKAAEADSKLKQVYIPTYTKPNPNQIISVGSKPGMNGAGFQKGLTCESCHTTQSAQWYAWGPPNMQCRLCASCWIYWKKYGGLKTPTQLEGATRGTTEPHSRGHLSRPEAQSLSPYTTSANRAKLLAKNRQTFLLQTTKLTRLARRMCRDLLQPRRAARRPYAPINANAIKAECSIRLPKAAKTPLKIHPLVRLPLATIVKDLVAQAPLKPKTPRGTKTPINRNQLSQNRGLGGIMVKRAYETMAGAGVPFSANGRPLASGIRSSSQPAAKRQKLNPADAPNPVVFVATKDTRALRKALTHLEMRRAARRPNLPLKVKPTLIAVRPPVPLPAPSHPASTNEPIVLED [MTA2]”, the melting temperature was 48.4 °C with HeLa Kyoto [1] (cell cycle stage: G1/S) and 49.5 °C with HeLa Kyoto [1] (cell cycle stage: mitosis). Besides, the “solubility in G1/S (log2)” value with HeLa Kyoto [2] is -0.0629. For the same sequence, the thermal stability score in the data set with HeLa Kyoto [3] (setting [5]) was found to be 0.686; with HeLa Kyoto [3] (cell cycle stage: mitosis), 5.69. In addition, the “solubility change mitosis (log2)” value with HeLa Kyoto [4] was -0.00514.
With “MAANYSSTSTRREHVKVKTSSQPGFLERLSETSGGMFVGLMAFLLSFYLIFTNEGRALKTATSLAEGLSLVVSPDSIHSVAPENEGRLVHIIGALRTSKLLSDPNYGVHLPAVKLRRHVEMYQWVETEESREYTEDGQVKKETRYSYNTEWRSEIINSKNFDREIGHKNPSAMAVESFMATAPFVQIGRFFLSSGLIDKVDNFKSLSLSKLEDPHVDIIRRGDFFYHSENPKYPEVGDLRVSFSYAGLSGDDPDLGPAHVVTVIARQRGDQLVPFSTKSGDTLLLLHHGDFSAEEVFHRELRSNSMKTWGLRAAGWMAMFMGLNLMTRILYTLVDWFPVFRDLVNIGLKAFAFCVATSLTLLTVAAGWLFYRPLWALLIAGLALVPILVARTRVPAKKLE [TMEM43]”, the melting temperature was found to be 53.5 °C in the data set with HeLa Kyoto [1] (cell cycle stage: G1/S) and 53.1 °C in the data set with HeLa Kyoto [1] (cell cycle stage: mitosis). For the same sequence, the “solubility in G1/S (log2)” value in the data set with HeLa Kyoto [2] was -0.206. Moreover, the values for the thermal stability score in the data set with HeLa Kyoto [3] (setting [5]) and in the data set with HeLa Kyoto [3] (cell cycle stage: mitosis) were 3.06 and 4.18, respectively. Moreover, the “solubility change mitosis (log2)” value in the data set on HeLa Kyoto [4] was -0.244.
Take “MAAPAQQTTQPGGGKRKGKAQYVLAKRARRCDAGGPRQLEPGLQGILITCNMNERKCVEEAYSLLNEYGDDMYGPEKFTDKDQQPSGSEGEDDDAEAALKKEVGDIKASTEMRLRRFQSVESGANNVVFIRTLGIEPEKLVHHILQDMYKTKKKKTRVILRMLPISGTCKAFLEDMKKYAETFLEPWFKAPNKGTFQIVYKSRNNSHVNREEVIRELAGIVCTLNSENKVDLTNPQYTVVVEIIKAVCCLSVVKDYMLFRKYNLQEVVKSPKDPSQLNSKQGNGKEAKLESADKSDQNNTAEGKNNQQVPENTEELGQTKPTSNPQVVNEGGAKPELASQATEGSKSNENDFS [THUMPD1]”: the melting temperature with HeLa Kyoto [1] (cell cycle stage: G1/S) was found to be 53.7 °C; in the data set with HeLa Kyoto [1] (cell cycle stage: mitosis), 54.3 °C. The “solubility in G1/S (log2)” value in the data set on HeLa Kyoto [2] turned out to be 0.555. Also, the results for the thermal stability score with HeLa Kyoto [3] (setting [5]) and in the data set with HeLa Kyoto [3] (cell cycle stage: mitosis) were 0.34 and 2.04, respectively. Moreover, the “solubility change mitosis (log2)” value with HeLa Kyoto [4] was -0.0115.
With “MAAPEERDLTQEQTEKLLQFQDLTGIESMDQCRHTLEQHNWNIEAAVQDRLNEQEGVPSVFNPPPSRPLQVNTADHRIYSYVVSRPQPRGLLGWGYYLIMLPFRFTYYTILDIFRFALRFIRPDPRSRVTDPVGDIVSFMHSFEEKYGRAHPVFYQGTYSQALNDAKRELRFLLVYLHGDDHQDSDEFCRNTLCAPEVISLINTRMLFWACSTNKPEGYRVSQALRENTYPFLAMIMLKDRRMTVVGRLEGLIQPDDLINQLTFIMDANQTYLVSERLEREERNQTQVLRQQQDEAYLASLRADQEKERKKREERERKRRKEEEVQQQKLAEERRRQNLQEEKERKLECLPPEPSPDDPESVKIIFKLPNDSRVERRFHFSQSLTVIHDFLFSLKESPEKFQIEANFPRRVLPCIPSEEWPNPPTLQEAGLSHTEVLFVQDLTDE [FAF2]”, the melting temperature in the data set on HeLa Kyoto [1] (cell cycle stage: G1/S) stood at 49.9 °C; in the data set with HeLa Kyoto [1] (cell cycle stage: mitosis), 50.4 °C. In addition, the “solubility in G1/S (log2)” value with HeLa Kyoto [2] was -0.0258. Further, the values for the thermal stability score in the data set with HeLa Kyoto [3] (setting [5]) and with HeLa Kyoto [3] (cell cycle stage: mitosis) were 2.25 and 3.16, respectively. Further, the “solubility change mitosis (log2)” value with HeLa Kyoto [4] was -0.13.
Consider “MAAPEPLRPRLCRLVRGEQGYGFHLHGEKGRRGQFIRRVEPGSPAEAAALRAGDRLVEVNGVNVEGETHHQVVQRIKAVEGQTRLLVVDQETDEELRRRQLTCTEEMAQRGLPPAHDPWEPKPDWAHTGSHSSEAGKKDVSGPLRELRPRLCHLRKGPQGYGFNLHSDKSRPGQYIRSVDPGSPAARSGLRAQDRLIEVNGQNVEGLRHAEVVASIKAREDEARLLVVDPETDEHFKRLRVTPTEEHVEGPLPSPVTNGTSPAQLNGGSACSSRSDLPGSDKDTEDGSAWKQDPFQESGLHLSPTAAEAKEKARAMRVNKRAPQMDWNRKREIFSNF [SLC9A3R2]”, for which the results for the melting temperature with HeLa Kyoto [1] (cell cycle stage: G1/S) and with HeLa Kyoto [1] (cell cycle stage: mitosis) were 53.6 °C and 54.2 °C, respectively. In addition, the “solubility in G1/S (log2)” value in the data set with HeLa Kyoto [2] was 0.422. For the same sequence, the thermal stability score in the data set with HeLa Kyoto [3] (setting [5]) was -1.69; with HeLa Kyoto [3] (cell cycle stage: mitosis) it was -3.57. In addition, the “solubility change mitosis (log2)” value in the data set with HeLa Kyoto [4] was -0.0543.
For the sequence “MAAPGSARRPLLLLLLLLLLGLMHCASAAMFMVKNGNGTACIMANFSAAFSVNYDTKSGPKNMTFDLPSDATVVLNRSSCGKENTSDPSLVIAFGRGHTLTLNFTRNATRYSVQLMSFVYNLSDTHLFPNASSKEIKTVESITDIRADIDKKYRCVSGTQVHMNNVTVTLHDATIQAYLSNSSFSRGETRCEQDRPSPTTAPPAPPSPSPSPVPKSPSVDKYNVSGTNGTCLLASMGLQLNLTYERKDNTTVTRLLNINPNKTSASGSCGAHLVTLELHSEGTTVLLFQFGMNASSSRFFLQGIQLNTILPDARDPAFKAANGSLRALQATVGNSYKCNAEEHVRVTKAFSVNIFKVWVQAFKVEGGQFGSVEECLLDENSMLIPIAVGGALAGLVLIVLIAYLVGRKRSHAGYQTI [LAMP1]”, the results for the melting temperature in the data set on HeLa Kyoto [1] (cell cycle stage: G1/S) and in the data set on HeLa Kyoto [1] (cell cycle stage: mitosis) were 59.9 °C and 61.1 °C, respectively. In addition, in the data set with HeLa Kyoto [2], the “solubility in G1/S (log2)” value was 0.0646. The thermal stability score is -2.35 in the data set with HeLa Kyoto [3] (setting [5]) and -3.71 in the data set on HeLa Kyoto [3] (cell cycle stage: mitosis). Also, the “solubility change mitosis (log2)” value with HeLa Kyoto [4] was determined as 0.0596.
